Measurements published in article PMC2151085 (PLoS Pathogens, 2007).

Columns and labels:
[1] = target: ALV-A Env surface subunit (SU), wild type, on virus particles (avian leukosis virus-A (ALV-A)) (UniProt P0DTM4)
[2] = target: the molecule itself; assay: SDS-resistant oligomer by SDS-PAGE and immunoblot

Sequence of ALV-A Env surface subunit (SU), wild type, on virus particles (avian leukosis virus-A (ALV-A)) (P0DTM4 63-401): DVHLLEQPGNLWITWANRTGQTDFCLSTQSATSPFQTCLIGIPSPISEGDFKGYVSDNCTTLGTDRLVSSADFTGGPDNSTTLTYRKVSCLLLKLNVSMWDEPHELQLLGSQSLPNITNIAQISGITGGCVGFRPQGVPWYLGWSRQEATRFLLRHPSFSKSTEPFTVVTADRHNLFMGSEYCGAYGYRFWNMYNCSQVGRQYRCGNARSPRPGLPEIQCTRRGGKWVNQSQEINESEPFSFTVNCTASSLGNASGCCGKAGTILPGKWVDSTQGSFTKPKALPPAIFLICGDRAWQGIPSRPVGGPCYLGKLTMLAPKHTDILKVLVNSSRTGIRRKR

Molecule: sTva, a functional isoform of the ALV-A receptor lacking the transmembrane domain
- infection of 293-Tva cells by ALV-A particles exposed to PMB (10 mM) in the presence of sTva (10 uM) [1]: > 99%

B1: ALV-A Env transmembrane subunit (TM), on virus particles (natural protein)
chain: STSHLDDTCSDEVQLWGPTARIFASILAPGVARAQALREIERLACWSVKQANLTTSFLGDLLDDVTSIRHAVLQNRAAIDFLLLAHGHGCEDVAGMCCFNLSDHSESIQKKFQLMKEHVNKIGVDSDPIGSWLRGLFGGIGEWAVHLLKGLLLGLVVILLLVVCLPCLLQIVCGNIRKMINNSISYHTEYKKLQKACGQPESRIV
- stoichiometry N [2]: 3
